molecular target: HLA-A*02:01 (Homo sapiens, UniProt P04439, D140Y/D185E/D98H/E176V/E277Q/G131W/G231S/I119V/I121R/I166T/I218V/L300P/L318F/N151K/N90K/P208A/P217A/Q86G/Q94H/R138H/R169H/T345S); experiment: MHC binding assay (UV-ligand exchange, β2m ELISA, peptide exchange yield); conditions: binding of HLA-class I restricted peptides to HLA-A*02:01, UV-ligand exchange
Procedure, shortened: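 Peptide-MHC complexes formed by UV-ligand exchange, cleaving a UV-sensitive placeholder peptide in favour of the test peptide. Exchange yield measured by ELISA: monomers diluted 100-fold onto streptavidin-coated plates, 1 h 37 °C, detected with 2 ug/ml HRP anti-β2m and TMB, absorbance at 450 nm.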

Substance | Peptide exchange (MHC class I binding score, peptide exchange yield)
263 (LLVSNLDFGV; listed as Homo sapiens) [compound 263] | “+++” (≥50 = +++)
264 (SLQEQLHSV; listed as Homo sapiens) [compound 264] | “+++” (≥50 = +++)
265 (LLFGGTKTV; listed as Homo sapiens) [compound 265] | “++” (≥20% = ++)
266 (KITDTLIHL; listed as Homo sapiens) [compound 266] | “+++” (≥50 = +++)
267 (ALQDFLLSV; listed as Homo sapiens) [compound 267] | “+++” (≥50 = +++)
269 (RVLEVGALQAV; listed as Homo sapiens) [compound 269] | “++” (≥20% = ++)
270 (LLLDEEGTFSL; listed as Homo sapiens) [compound 270] | “++” (≥20% = ++)
271 (LVYPLELYPA; listed as Homo sapiens) [compound 271] | “+++” (≥50 = +++)
272 (ALGNTVPAV; listed as Homo sapiens) [compound 272] | “+++” (≥50 = +++)
273 (NLFQSVREV; listed as Homo sapiens) [compound 273] | “++” (≥20% = ++)
274 (SLLFSLFEA; listed as Homo sapiens) [compound 274] | “++” (≥20% = ++)
275 (YLVYILNEL; listed as Homo sapiens) [compound 275] | “++” (≥20% = ++)
276 (ALFTFSPLTV; listed as Homo sapiens) [compound 276] | “+++” (≥50 = +++)
277 (LLPPLESLATV; listed as Homo sapiens) [compound 277] | “++” (≥20% = ++)
278 (QLLDVVLTI; listed as Homo sapiens) [compound 278] | “++” (≥20% = ++)
279 (ALWGGTQPLL; listed as Homo sapiens) [compound 279] | “++” (≥20% = ++)
280 (VLPDPEVLEAV; listed as Homo sapiens) [compound 280] | “+++” (≥50 = +++)
281 (ILRESTEEL; listed as Homo sapiens) [compound 281] | “+++” (≥50 = +++)
282 (LLADVVPTT; listed as Homo sapiens) [compound 282] | “+++” (≥50 = +++)
283 (ALYIGDGYVIHLA; listed as Homo sapiens) [compound 283] | “+++” (≥50 = +++)
284 (ILLSQTTGV; listed as Homo sapiens) [compound 284] | “+++” (≥50 = +++)
285 (QLLHVGVTV; listed as Homo sapiens) [compound 285] | “+++” (≥50 = +++)
286 (YLFPGIPEL; listed as Homo sapiens) [compound 286] | “+++” (≥50 = +++)
287 (FLNEFFLNV; listed as Homo sapiens) [compound 287] | “+++” (≥50 = +++)
288 (NLINEINGV; listed as Homo sapiens) [compound 288] | “+++” (≥50 = +++)

Substance | Peptide exchange (MHC class I binding score, peptide exchange yield)
289 (VLLEIEDLQV; listed as Homo sapiens) [compound 289] | “++++” (≥75% = ++++)
295 (VLDRESPNV; listed as Homo sapiens) [compound 295] | “+++” (≥50 = +++)
296 (FMEGAIIYV; listed as Homo sapiens) [compound 296] | “+++” (≥50 = +++)
297 (VLADIELAQA; listed as Homo sapiens) [compound 297] | “+++” (≥50 = +++)
298 (VMITKLVEV; listed as Homo sapiens) [compound 298] | “+++” (≥50 = +++)
299 (YLLETSGNL; listed as Homo sapiens) [compound 299] | “+++” (≥50 = +++)
300 (ALLGQTFSL; listed as Homo sapiens) [compound 300] | “+++” (≥50 = +++)
301 (FLVEDLVDSL; listed as Homo sapiens) [compound 301] | “+++” (≥50 = +++)
302 (ALLQEGEVYSA; listed as Homo sapiens) [compound 302] | “+++” (≥50 = +++)
303 (AILPQLFMV; listed as Homo sapiens) [compound 303] | “++++” (≥75% = ++++)
304 (MTLGQIYYL; listed as Homo sapiens) [compound 304] | “+++” (≥50 = +++)
305 (SIANFSEFYV; listed as Homo sapiens) [compound 305] | “++++” (≥75% = ++++)
306 (ALVNVQIPL; listed as Homo sapiens) [compound 306] | “+++” (≥50 = +++)
307 (ALPVSLPQI; listed as Homo sapiens) [compound 307] | “+++” (≥50 = +++)
308 (SQYSGQLHEV; listed as Homo sapiens) [compound 308] | “+++” (≥50 = +++)
309 (GLFDGVPTTA; listed as Homo sapiens) [compound 309] | “+++” (≥50 = +++)
310 (FLVDTPLARA; listed as Homo sapiens) [compound 310] | “++++” (≥75% = ++++)
311 (RLYTGMHTV; listed as Homo sapiens) [compound 311] | “+++” (≥50 = +++)
312 (IISDLTIAL; listed as Homo sapiens) [compound 312] | “+++” (≥50 = +++)
313 (VLFDDELLMV; listed as Homo sapiens) [compound 313] | “+++” (≥50 = +++)
314 (ALIAEGIALV; listed as Homo sapiens) [compound 314] | “+++” (≥50 = +++)
315 (YLQDVVEQA; listed as Homo sapiens) [compound 315] | “+++” (≥50 = +++)
316 (ILLERLWYV; listed as Homo sapiens) [compound 316] | “+++” (≥50 = +++)
317 (SLAALVVHV; listed as Homo sapiens) [compound 317] | “+++” (≥50 = +++)
318 (GLINTGVLSV; listed as Homo sapiens) [compound 318] | “++” (≥20% = ++)

Source: patent US11230581B2, “Peptides and combination of peptides for use in immunotherapy against ovarian cancer and other cancers” (Immatics Biotechnologies GmbH, priority 2015, dated 2022)
